assay: soluble on expression in E. coli; label from the status in PepcDB or PDB records

| Sequence | soluble on expression in E. coli |
| --- | --- |
| MGKLEDICDQYLSRKKEQDKVIEAVERCLKKGYDYEKLKDRVQEAISDPQKARKVISAVCDHYPQLRKRTRTDRDGEDRDRKRDRTDDRRKPDASVPAAVAEPQKPAEQSIEERLRAKEMMYKAQQEIEETKRKMAIAAGTLQPKAALAQAKTQMVAPGGKSLSLGRDEATMLMTHSMDKKSRMEELKARLARTTVMAKIDAMVGNSGAGVMAPLPEAVQQAEKKVQQQITKESKEPEKLIEYLDPRIQARTADRRRRGFNFHEKGEFEKLANKQRAMAKLERLQNEVSSAAQSTGISSAVKLAMVTPTGTAKMENGVPDIEWWDMLVLDKVNYDEIPAENDMERYSQTVSELVEHPISMRAPTEPLTQQYLKVYLTTKEKKKIRRQNRKEVLKEKTEKIRLGLEKAPEPKVKISNLMRVLGNEAIQDPTKMEAQVRKQMAERLKKHETLNAERKLTEDQKRAKKTKKLSEDTSTAVNVSVYRVKSLAHPSKKFKVETNAKQLQMSGAIMMHKAQNVIVVEGGPKQQKFYKNLMINRIKWSDEIIGQKKDAEKDAPGERNLCEMIWEGQVKRRNFRDFTVHTATLEKQAREFFEKHGVAQYWDLCYSTTVLLEGQDILPTA | not soluble |
| GPGSMAMMLHTRRTVYSCICVHTHTHTHTCGCPPPTLSQKKKRSRLFMSSSSGDEYDPAEVTVHTTVASPSLSDTVVPSAAPFLRSAAGNASAATVAAAPALASLPKTAASVLPSSSSPTPPNTGNDVDGGYRLHSNIKGRIRCLTLNTAGTTLCAGSEDGQLCMWDFTVPLKSYRVQPTRVLTPFVNRISGLQPIIALTCASDDSYFVACQDGDSPVLVRASGEQLGYCAIGERGLMDVIQCKGHRAPVTCVAAHTHDAAAFFTGSQDGTVRLWNTATFKQRSVYAVKHGSGQLTDTHAVESVASLDSFHNGLGRVFASGGQDGRVQIWDSRVKYRPGGAIATVDMYAAAAPAGPDKVTEDPFMEKHVGGMMELHQKDAGASNASGSYGLAVRLGSAVKIIDLPQLSHSDGTTAPKAVLQERLPGCPTCSTRALCRLGAVVGLQQ | soluble |
| MAEECSGNCDSCGSSSDCSDTKKMMEQQNAQIRDNMSKIKYKIAVMSGKGGVGKSTVTVNLAATLNMMGYKVGVLDGDIHGPNIPQMLGVDQIQPMADENGIYPVSTPQGIKTMSIGYFLPDKNTPIIWRGPKASGAIRQFLSDVNWGELDFLLIDTPPGSGDIQITTLQAIPDIDGVVIVTTPEEVSVLDARKSVSAANTLEIPIIGIVENMGGFVCPECDKVIDIFGKGGGEKAAKELNVFFLGRIPLDIKARVASDRGVPMVTMDCKASEEFKKVVNTVLERIKKELEHHHHHH | soluble |
| GSHMKVLLLGFEFLPVKVGGLAEALTAISEALASLGHEVLVFTPSHGRFQGEEIGKIRVFGEEVQVKVSYEERGNLRIYRIGGGLLDSEDVYGPGWDGLIRKAVTFGRASVLLLNDLLREEPLPDVVHFHDWHTVFAGALIKKYFKIPAVFTIHRLNKSKLPAFYFHEAGLSELAPYPDIDPEHTGGYIADIVTTVSRGYLIDEWGFFRNFEGKITYVFNGIDCSFWNESYLTGSRDERKKSLLSKFGMDEGVTFMFIGRFDRGQKGVDVLLKAIEILSSKKEFQEMRFIIIGKGDPELEGWARSLEEKHGNVKVITEMLSREFVRELYGSVDFVIIPSYFEPFGLVALEAMCLGAIPIASAVGGLRDIITNETGILVKAGDPGELANAILKALELSRSDLSKFRENCKKRAMSFSWEKSAERYVKAYTGSIDRAFDFIL | soluble |
| MDHLDDLVDLYEYRVEDLLQGRTPKGGKQALLRLRQLLIQSRLPGPLAKRFRQADARFRAQRRALAPEAQAPVELPAIAVPEEPEPPPPEASPLAALALKVWRLQVERDVKARLEALLAGRREELRLIHAFLDNFALYRETPGFKRDFNLSRFVPTRPIPSLSDTLVDLDDPKVAQALVVDFLETARELPKLLPLPPEETRTYVRRFLNRLLEWEGAYNLPPKPDLPALRRALEEARRLGAGEKEVAQLEERLRKAAQEARRRDLLLEEEKGRFRVALEKVVALLSLLPTPQGETPWPRVPEPGQEEEGLLTLRLAPGPVALGPLTLTLSHAGGTWYLGLEGEDHPLEDTLVLPWEDLEVWAVRENDLLHLRLEARSGLRLYELLAEGRLLAYLLHPGKDYAYLRLLRGLSTRLKGEFQAQAFGPALAEKYRKAPEEALQDFARKGLELTLKRLGQADPLPLLQEVGQALGLEAEAQTLGQALREYLGRRPPTRETLGGEVHFLALTPEPQALKLDQHVLSVRLKEDAVYLGQAGEVPRRLKDLLVYRLGERALVLAREGRRLAYTLLPLP | soluble |
| MTVEEYQQTVAQWLEVAKDPHFNKAYTELTYKPMREMVTYLQDHDFKVYIVSGGGVDFMRTWAPEVYGIPEEQIIGSALKYKYDYNNSNPTVTKLGEILTIDDKAGKVENIQHIIGKKPVLAIGNSDGDHAMMQWATSQPNSMAMIVHHTDEAREWKYDR | not soluble |
| MYKVSIICTNYNKAPWISDALDSFLSQVTDFEVEIIVIDDASTDDSREILKSYQKKSSGKIKLLFNETNIGITKTWIKACLYAKGKYIARCDGDDYWTDSFKLQKQVDVLEASKRSRWCNTDFDFVNSQGDLLYANAFSSGHTPLTDTYEKVLALKGMTMASTWLVDADLMRQVNQKINVDTPDDTFDIQLELFQLTQLTYIKDSTTIYRMTTDSDSRPTDTPKMIYRIQKLLDTQLNYLKKYNQVDTKEVSELLLQQDAKQEIRIHELSCFIQELQQTIVDKTKQQETREVELQNVIEEQKNQLSELRQQYHAIINSRQWKYTSKLIAFIRRKK | not soluble |
| MIRMPLATASLLAIAISLAGCGEGKDKAAAPAPAAAPAAPAAAPAAPAPAPAAAAQTDDAAAKAVVANYANMVSAVFDDAQGAAKKLSTAVDAFLAKPNDETLKAARDAWVAARVPYMQSEVFRFGNTIIDDWEGQVNAWPLDEGLIDYVAKDYQHALGNPGATANIIANTEIQVGEDKVDVKEITSEKLASLNELGGSEANVATGYHAIEFLLWGQDLNGTGPGAGARPASDYLEGAGATGGHNDRRRTYLKAVTDLLVSDLEEMAGNWKAGVADNYRATLEAESGESGLRKMLFGMGSLSLGELAGERMKVALEANSSEDEHDCFSDNTHNSHFYNGKGIRNVYLGEYTRTDGSKVSGPSLSSLVAKVDPATDATLRADLDDTQAKLQAIVDHANKGEHFDQLIGAGNTAGNQVVRDAIAALVKQTGAIEQAAGKLGITDLNPDNADHEF | soluble |
| MDSLNNGWFSELQADLWPGQSFSLKVKEVIHKEKSRFQDIQIVETETYGRCLILDGIIQCTARDEFSYQEMISFLPLCAHPNPKKVLIVGGGDGGVAREVVKHPLVEEVHQVEIDDRVVELSKQYLPAMACGFANEKLKLTIGDGFDYMKKHKNEFDVIITDSSDPIGPAVSLFQESYYELMKHALKDDGIVCSQGGSFWLDLDYIKKTMSGCKEHFAKVAYAVTSVPSYPCGHIGFVMGSLNKNQDFATPKLGKSEIDSIDLRYYSSEVHSAAFALPRWVQKHFYELEHHHHHH | not soluble |
| MIKHLVAPLVFTSLILTGCQSPQGKFTPEQVAAMQSYGFTESAGDWSLGLSDAILFAKNDYKLLPESQQQIQTMAAKLASTGLTHARMDGHTDNYGEDSYNEGLSLKRANVVADAWAMGGQIPRSNLTTQGLGKKYPIASNKTAQGRAENRRVAVVITTP | not soluble |
| MGSDKIHHHHHHMKYLKQYMIIGAVTMITSCSDFLDTAPLDALSPATTWKTEDDAQKFAIGCYGGNNYDTSSWEDGGNILYLDCGSDFGYNNFEWENYKTIGNGTMTPSGAVASFYDFSVIRRCNTFLEKVKEIPFSNEQTKNDLIGQVRTIRAYRYFVMNWWYGGVPVIDNYNSADEAKVPRKSEEEVKNYVNTELDTAIGELNASPSERGRIAKGAAMAIRMRSALYYGDYVKAKEMAEAIMNLKQYDLEPDYSNLFKVAGQDSKEIILAVQYVNSTLELGTIGQMYNNGDGGWSSIVPTQNLVDTYEMADGLTKEESGSYDPNHPFAGRDPRMAMTIIYPGMDWNGTVVNTLDKTINGKDNANYPPSANNASKTALTWRKYLDEQYANGIWNTNACPIVIRYAEVLLTYAEAVNELSGPSADVYDKLDLIRGRVGMPKVDREKYASKETLRRLIRRERGVELAGEGVRRADILRWKDDNGKMVAETVLNGVLERVVGTVNYAETDPTKRAEIDTNAPATDKKIEDRVFKVHNRYNPIPQGAIDNNPNLEQNPGY | not soluble |
| MVKLFIGNLPREATEQEIRSLFEQYGKVLECDIIKNYGFVHIEDKTAAEDAIRNLHHYKLHGVNINVEASKNKSKASTKLHVGNISPTCTNQELRAKFEEYGPVIECDIVKDYAFVHMERAEDAVEAIRGLDNTEFQGKRMHVQLSTSRLRTAPGMGDQSGCYRCGKEGHWSKECPVDRTGRVADFTEQYNEQYGAVRTPYTMGYGESMYYNDAYGALDYYKRYRVRSYEAVAAAAAASAYNYAEQTMSHLPQVQSTTVTSHLNSTSVDPYDRHLLPNSGAAATSAAMAAAAATTSSYYGRDRSPLRRAAAMLPTVGEGYGYGPESELSQASAATRNSLYDMARYEREQYVDRARYSAF | soluble |
| MPSLFKTMAFQLKTERLELSMWEESDSVWLSKLIGERGVDIPAVDSVRNRLIEMRKKADENGISLLTIRRRDEGDFIGYCGLIIGRSTLEEPEIAYELFRSAHGKGYATEAASVVLDAAIATGRQRLWSTVGAWNIASLRVLEKIGFKRHHSTWDDERGEIVWNVRDL | not soluble |
| MGSDKIHHHHHHMSVNGSQRVDLEVVANLIPPQSRVLDVGSGDGSLLELLQDTKQVDGRGLELSQRGVNECVARGLSVIQGDADKDLEFYPDKGFDFVVLSQTLQATRNPKLVLDELLRIGNRAIVSFPNFGHWRVRLSLFVKGRMPVTQDLPYSWYDTPNIHFCTIRDFVNLCEELGATVEKATALDAAGQKIGLSMPWWFWNFFGQQAVFLLKRN | not soluble |
| MIEGIIEEIRTNGSFLITTHENPDGDAVGSSLALAGYLRRLGKDVTIHFCDPVPDLYAFLPLAEEVTRTVPDRDYDICFVLDVGEFRRAGKQIAECKRIKKFINIDHHLTSDNFGFINYIDPKAAATGILVHRIITGAGDVVGYETALCLYTAIITDTGSFRYSNANPEAFAIAGELVSTGINTWSIAEKLYESQPRERLELLALALSTLTISPRGEYASITVTLDMYNKTGASAELTDGFVNYPRSIRGVEVSVFFREINPGLFKVGFRSKGKIDVSRIAAAFGGGGHHNAAGATMNGSLEGIKATLFSHLESTLLEHHHHHH | not soluble |
| GPGSMSSIEELKVVRLFRALNTMIQLCHDRGYVIRHPSAIAEAVQNPELYNNEEGLDHDWFLRHFVISPDRAARSIRAKQRGDGSSRSGPRREAKNEEDGGDADKPGEYDVAADEDEALRRAANGEWVCMRNAMRLTCSVDPRRATLASSVLTGAPTNKAPSSAPAVTAEPKDDDGDVPYAVAAAAVDAKSKEKAAKNALMVFFSGSPKLSMKEVHSFREKALKKKASSMIVVTNKIDPGVRMDVQELSGRMDEATGAELLSIQVFEEEALAFNVVRHETVPRHVALTPAEAEAFLAERKLNVAQLPRMQESDPLVQYLGLQRGSIVHITREGKQSGPYSMYRHVI | soluble |
| MGSDKIHHHHHHMGHDLPPLPSRDVHAVRWYVLSLPACHKGPAKGLKKELDRRVRLGEPTFDFFAPSFVEMRRREGHLVETHRPLLYNYVFIRSSVYEIFRLKRDFPLYNFLPSVDGRGSYPFVSDREMENLRWVARSYSDELPVYVPEAGYLRKGDRIRITDGRFKGVEASVVIQPGVGEREVMVCVDNWMWVPLLRVQPGEYEVISLAEEGKHVYTRLDNSRIQNGLHEALGRHWGSCGVTAADRELAAETLRTYGELQLDSAVMRCKLYSLLLPAYTILGDEERQKSLIGTIVSFLSLIRAEQSLALLLLTLYGCTDSSIYYYRAHELIDPWSRESSPKKSKLSLIRRLADYDRWLKHNE | not soluble |
| GSHMLEMRIGHGFDVHAFGGEGPIIIGGVRIPYEKGLLAHSDGDVALHALTDALLGAAALGDIGKLFPDTDPAFKGADSRELLREAWRRIQAKGYTLGNVDVTIIAQAPKMLPHIPQMRVFIAEDLGCHMDDVNVKATTTEKLGFTGRGEGIACEAVALLIKATK | soluble |

Source: the DeepSol protein solubility set
